The target in assay [1] is Lge1-CT E278K/E282K (budding yeast) (UniProt Q02796). Kind of assay: SPR; Lge1-CT immobilised on a CM5 chip, Bre1-LR flown over; Biacore 8K, 25°C, 20 mM HEPES (pH 7.5), 200 mM sodium chloride, 0.02% Tween 20.
For assay [2], the target named is Lge1-CT D312K (budding yeast) (UniProt Q02796). Described as above.
The target of assay [3] is Lge1-CT D287K (budding yeast) (UniProt Q02796). The assay is described as above.
Assay [4] addresses Lge1-CT (Lge1 residues 261–332), intein-chitin binding domain (CBD) tag construct (budding yeast) (UniProt Q02796). Described as above.
Assay [5] deals with Bre1-LR K506E/K510E (budding yeast) (UniProt Q07457). Kind of assay: ITC; Lge1-CT (50–60 μM) injected into Bre1-LR (15 μM); 25°C, 20 mM TRIS (pH 7.5), 300 mM sodium chloride.
The target is the same in assay [6]. Kind of assay: ITC; Lge1-CT (50–60 μM) injected into Bre1-LR (15 μM); 25°C, 20 mM TRIS (pH 7.5), 200 mM sodium chloride.
The target in assay [7] is Bre1-LR I397K (budding yeast) (UniProt Q07457). Described as above.

A word on the Kd: it is the constant that tells how readily two partners part at equilibrium. Consider “Bre1-LR (Bre1 residues 227–700, LBD and RING domains), 6× histidine tag (from UniProt Q07457 227-700) (domain or fragment)”, for which the figures for the Kd in assay [1], in assay [2] and in assay [3] were 95.6 nM, 25.3 nM and 145 nM, respectively.
For the substance “Bre1-LR D389K/D390K (from UniProt Q07457 227-700) (domain or fragment)”, the Kd in assay [4] was found to be 75.5 nM.
Same read-out and setting: the same measure for “Bre1-LR I397K (from UniProt Q07457 227-700) (domain or fragment)”: 40.7 nM.
One may read the stoichiometry N as a count of units in the complex or per binding partner. As for “Lge1-CT (Lge1 residues 261–332), intein-chitin binding domain (CBD) tag construct (from UniProt Q02796 261-332) (domain or fragment)”, in assay [5], the dissociation constant (Kd) was 6720 nM, the dH was -80 kcal/mol and the stoichiometry N is 0.474. In assay [6], the equilibrium dissociation constant (Kd) is 41.9 nM, the dH is -35.2 kcal/mol and the stoichiometry N was found to be 0.383. Further, in assay [7], the Kd stood at 122 nM, the dH is -41.3 kcal/mol and the stoichiometry N is 0.18.

These data come from article PMC12802937.
